The stoichiometry N is the number of molecules, sites or subunits per partner or assembly.

The record followed here is publication PMC3646729, “Recruitment, Assembly, and Molecular Architecture of the SpoIIIE DNA Pump Revealed by Superresolution Microscopy” (PLoS Biology, 2013).

The data set concerns the molecule itself. Nature of the data set: two-photon number and brightness analysis (N&B, fluorescence fluctuation microscopy); live B. subtilis cells with SpoIIIE-GFP; clusters at sporulation and division septa, after induction of sporulation or in exponential growth; brightness normalised to monomeric freely diffusing GFP; excitation at 930 nm, 50 raster scans.

B1: SpoIIIE-GFP fusion (natural protein, B. subtilis, UniProt P21458 1-787, looked up)
chain: MAKKKRKSRKKQAKQLNIKYELNGLLCIAISIIAILQLGVVGQTFIYLFRFFAGEWFILCLLGLLVLGVSLFWKKKTPSLLTRRKAGLYCIIASILLLSHVQLFKNLTHKGSIESASVVRNTWELFLMDMNGSSASPDLGGGMIGALLFAASHFLFASTGSQIMAIVMILIGMILVTGRSLQETLKKWMSPIGRFIKEQWLAFIDDMKSFKSNMQSSKKTKAPSKKQKPARKKQQMEPEPPDEEGDYETVSPLIHSEPIISSFSDRNEEEESPVIEKRAEPVSKPLQDIQPETGDQETVSAPPMTFTELENKDYEMPSLDLLADPKHTGQQADKKNIYENARKLERTFQSFGVKAKVTQVHLGPAVTKYEVYPDVGVKVSKIVNLSDDLALALAAKDIRIEAPIPGKSAIGIEVPNAEVAMVSLKEVLESKLNDRPDAKLLIGLGRNISGEAVLAELNKMPHLLVAGATGSGKSVCVNGIITSILMRAKPHEVKMMMIDPKMVELNVYNGIPHLLAPVVTDPKKASQALKKVVNEMERRYELFSHTGTRNIEGYNDYIKRANNEEGAKQPELPYIVVIVDELADLMMVASSDVEDSITRLSQMARAAGIHLIIATQRPSVDVITGVIKANIPSRIAFSVSSQTDSRTILDMGGAEKLLGRGDMLFLPVGANKPVRVQGAFLSDDEVEKVVDHVITQQKAQYQEEMIPEETTETHSEVTDELYDEAVELIVGMQTASVSMLQRRFRIGYTRAARLIDAMEERGVVGPYEGSKPREVLLSKEKYDELSS
notes: SpoIIIE DNA translocase of Bacillus subtilis (strain PY79 derivative); the SpoIIIE gene was replaced by a SpoIIIE-GFP fusion, no wild-type copy left; The fusion is said to be fully functional, so it is probably the whole protein; also called SpoIIIE ATPase; SpoIIIE DNA translocase; source: B. subtilis PY79 derivative, SpoIIIE-GFP fusion under the endogenous promoter, in live cells
As for B1, the “stoichiometry N” value worked out at 6.
